Target: the molecule itself
Experiment: SEC; analytical gel filtration of the purified protein on its own; S200/26-60 column, 20 mM HEPES-Na pH 7.5, 250 mM NaCl, 10 mM KCl, 10 mM MgCl2; fractions analysed by SDS-PAGE

B1: BacF carrying a hexa-histidine tag (6-His-BacF) (natural protein, Bacillus subtilis, UniProt P39133 1-235, looked up)
chain: METTKLGNLKLYGAGHAAGGAYHNVSIKGEGIVGEGLSAVGCRIYGTGLFLGKAETERLRVLGESECKGDLTAGKINIYGTMKVSGSLQFDRFNLKGQTEIGGNMTGESCDVKGKLSVIGDCETEMFHVTGCVDVSGLLNSGEIKLGLSHDISHVQEIGGTTITVKRRASFFSRKKGKLIADVIEGDRVYLENTEAAVVRGKEVIIGPGCSIGTIEYEYKCECDPHSQIKEKTKL
notes: Bactofilin BacF, product of yhbF, Bacillus subtilis; full-length yhbF cloned into pET16b or pET24d; also called YhbF; his6-yhbF; source: E. coli BL21 (DE3); also coexpressed with untagged BacE, in cell extract
B1: binds.

B2: BacE carrying a hexa-histidine tag (his6-yhbE) (natural protein, Bacillus subtilis, UniProt P39132 1-237, looked up)
chain: MDVVEKLVINGSGSSKGGTFQSVEINGSGTVAGDVECDTFSFNGNGKADGSVKAKAVTISGSGKIHGDVEAESIRMNGTGFIQGEVSAKQLKIAGSSTFGGTVKADGIDISGKAVMEADCETETFQSEGKCKISGLLNADQVIIKLSAGESYAREIGCRHLQVTCRKGMLTLLRLMPQPVLTAELIEGDVIELTNTKAKTVRGNKVIIGPDCQIETVEYSGDYTCDPSASVETSTKL
notes: Bactofilin BacE, product of yhbE, Bacillus subtilis; full-length yhbE cloned into pET16b or pET24d; source: E. coli BL21 (DE3); also coexpressed with untagged BacF, in cell extract
B2: binds.

Reference: PMC4627819, “Bacillus subtilis Bactofilins Are Essential for Flagellar Hook- and Filament Assembly and Dynamically Localize into Structures of Less than 100 nm Diameter underneath the Cell Membrane” (PLoS ONE, 2015)
